The text below walks through data of paper PMC4448915 (Structure (London, England : 1993), 2015).

Values joined by “and” are separate entries in the source; they are usually repeats but may differ in a detail not shown here. Identical values can stand only once. Like-named read-outs stand apart in the source and are kept apart here.

The target of assay [1] is T1, ubiquitin (Ub), monomeric, wild type (UniProt P0CG48 1-76). The assay can be described thus: NMR titration.
Assay [2] deals with T1, ubiquitin (Ub), monomeric, wild type. The assay can be described thus: NMR titration. This is another data set of the same source.

By Kd is commonly meant the free concentration of one partner at which half of the binding sites on the other are occupied at equilibrium, for simple one-to-one binding. High values mean weaker binding, low ones tighter binding. As for TFPEQTIKQLMDLGFPRDAVVKALKQTNGNAEFAASLLFQ (domain or fragment, S. cerevisiae, UniProt P40087 389-428, looked up) [Ddi1UBA, ubiquitin-associated (UBA) domain of Ddi1 from Saccharomyces cerevisiae, residues 389-428], the Kd turned out to be 291 ± 13 µM in assay [1] and 150 ± 16 µM in assay [2].

B1: Ddi1UBL, ubiquitin-like (UBL) domain of DNA-damage-inducible 1 protein (Ddi1) from Saccharomyces cerevisiae, residues 2-80 (domain or fragment, S. cerevisiae, UniProt P40087 2-80, looked up)
chain: DLTISNELTGEIYGPIEVSEDMALTDLIALLQADCGFDKTKHDLYYNMDILDSNRTQSLKELGLKTDDLLLIRGKISNS
In general, stoichiometry N refers to a count of units in the complex or per binding partner. In assay [1], B1 yielded a Kd of 175 ± 25 µM. In assay [2], the Kd was 45 µM and 71 µM; the “stoichiometry N” value turned out to be 1.

B2: full-length (FL) Ddi1 protein from Saccharomyces cerevisiae (natural protein, S. cerevisiae, UniProt P40087 1-428, looked up)
chain: MDLTISNELTGEIYGPIEVSEDMALTDLIALLQADCGFDKTKHDLYYNMDILDSNRTQSLKELGLKTDDLLLIRGKISNSIQTDAATLSDEAFIEQFRQELLNNQMLRSQLILQIPGLNDLVNDPLLFRERLGPLILQRRYGGYNTAMNPFGIPQDEYTRLMANPDDPDNKKRIAELLDQQAIDEQLRNAIEYTPEMFTQVPMLYINIEINNYPVKAFVDTGAQTTIMSTRLAKKTGLSRMIDKRFIGEARGVGTGKIIGRIHQAQVKIETQYIPCSFTVLDTDIDVLIGLDMLKRHLACVDLKENVLRIAEVETSFLSEAEIPKSFQEGLPAPTSVTTSSDKPLTPTKTSSTLPPQPGAVPALAPRTGMGPTPTGRSTAGATTATGRTFPEQTIKQLMDLGFPRDAVVKALKQTNGNAEFAASLLFQ
Take B2: the binding result in assay [2] is on record as “binds”.

B3: Ufo1UIMs, Ufo1 fragment of residues 547-668 comprising three UIM motifs (domain or fragment, UniProt Q04511 547-668, looked up)
chain: DEDEQLRRALEESQLIYETQTNSSANHGNNTNDEIDEDDEEFLRAIRQSRVEDERRRHLRNHTTGRRNGPLSDDNFATYGAAESSERTSTENTIGSSVGVDASNNVDEDLQLAIALSLSEIN
Molecule B3 yielded a Kd in assay [2] of 237 ± 52 µM.
